Test results: PMC5047623 (PLoS ONE, 2016)

Molecular target: T1, purified α5ß1 ectodomain protein (human, UniProt P08648 42-995; P05556 21-728)
T1 construct: signal peptide in the construct; human integrin alpha-5, residues 1-995; human integrin beta-1, residues 1-728; Thrombin cleavage site between the integrin and the Fc; residues of the site may remain; also called purified and untagged α5ß1; α5ß1 integrin; not shown: Fc, C-terminal, cleaved
Test: SPR; ProteOn XPR36, GLC chip; rhTie1 (4750 RU) and rhTie2 (6400 RU) amine-coupled; α5ß1 at 3 μM flowed at 60 μL/min for 3 min; 25 degrees Celsius; 20 mM Tris, 100 mM NaCl, 1 mM MnCl2, 2 mM CaCl2 pH 7.5; BSA channel subtracted
Conditions: both partners purified

T1 sequence (P08648 42-995, chain 1 of 2): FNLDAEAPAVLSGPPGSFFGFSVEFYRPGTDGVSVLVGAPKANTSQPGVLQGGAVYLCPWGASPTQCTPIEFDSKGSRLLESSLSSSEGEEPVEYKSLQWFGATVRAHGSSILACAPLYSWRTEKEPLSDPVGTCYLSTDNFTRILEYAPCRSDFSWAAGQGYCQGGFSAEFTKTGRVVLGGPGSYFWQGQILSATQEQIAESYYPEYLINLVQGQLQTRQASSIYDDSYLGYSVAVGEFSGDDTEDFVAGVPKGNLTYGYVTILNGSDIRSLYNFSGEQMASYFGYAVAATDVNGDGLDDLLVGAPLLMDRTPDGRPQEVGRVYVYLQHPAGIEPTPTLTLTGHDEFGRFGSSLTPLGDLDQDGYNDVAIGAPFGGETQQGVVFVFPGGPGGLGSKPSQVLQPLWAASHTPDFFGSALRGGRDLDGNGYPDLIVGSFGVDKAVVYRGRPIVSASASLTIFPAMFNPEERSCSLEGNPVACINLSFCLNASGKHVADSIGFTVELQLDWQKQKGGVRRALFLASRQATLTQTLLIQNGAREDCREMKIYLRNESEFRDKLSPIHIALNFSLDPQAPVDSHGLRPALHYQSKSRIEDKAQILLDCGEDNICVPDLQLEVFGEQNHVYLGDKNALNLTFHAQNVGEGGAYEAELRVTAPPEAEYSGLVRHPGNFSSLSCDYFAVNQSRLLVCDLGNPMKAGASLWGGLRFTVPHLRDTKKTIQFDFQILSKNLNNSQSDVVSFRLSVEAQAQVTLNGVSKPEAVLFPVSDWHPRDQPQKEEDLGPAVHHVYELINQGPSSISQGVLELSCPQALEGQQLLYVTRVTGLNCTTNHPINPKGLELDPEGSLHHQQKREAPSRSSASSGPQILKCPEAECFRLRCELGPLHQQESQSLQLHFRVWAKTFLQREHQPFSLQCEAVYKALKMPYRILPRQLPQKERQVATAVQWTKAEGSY
T1 sequence (P05556 21-728, chain 2 of 2): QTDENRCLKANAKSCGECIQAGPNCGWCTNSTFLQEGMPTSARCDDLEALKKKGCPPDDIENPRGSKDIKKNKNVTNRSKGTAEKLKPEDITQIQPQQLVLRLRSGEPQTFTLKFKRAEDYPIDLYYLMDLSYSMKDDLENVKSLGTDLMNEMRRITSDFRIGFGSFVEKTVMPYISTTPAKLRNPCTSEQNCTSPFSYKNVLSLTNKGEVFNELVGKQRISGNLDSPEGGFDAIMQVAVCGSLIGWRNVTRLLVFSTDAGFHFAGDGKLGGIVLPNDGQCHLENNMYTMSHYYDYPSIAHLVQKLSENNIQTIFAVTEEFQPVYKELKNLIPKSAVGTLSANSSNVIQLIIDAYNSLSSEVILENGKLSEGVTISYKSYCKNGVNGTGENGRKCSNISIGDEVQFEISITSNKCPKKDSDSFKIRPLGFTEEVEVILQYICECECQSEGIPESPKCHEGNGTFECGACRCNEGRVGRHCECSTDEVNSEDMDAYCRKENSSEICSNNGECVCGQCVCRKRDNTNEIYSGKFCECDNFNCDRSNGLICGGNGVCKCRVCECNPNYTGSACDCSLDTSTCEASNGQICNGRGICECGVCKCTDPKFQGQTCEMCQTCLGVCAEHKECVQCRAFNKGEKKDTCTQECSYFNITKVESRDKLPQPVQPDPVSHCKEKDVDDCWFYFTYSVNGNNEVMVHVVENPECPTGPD

binding result: binds
B1: recombinant human Tie1 (rhTie1) extracellular domain, Fc tagged (Fc fusion, UniProt P35590 22-759, looked up)
chain: AVDLTLLANLRLTDPQRFFLTCVSGEAGAGRGSDAWGPPLLLEKDDRIVRTPPGPPLRLARNGSHQVTLRGFSKPSDLVGVFSCVGGAGARRTRVIYVHNSPGAHLLPDKVTHTVNKGDTAVLSARVHKEKQTDVIWKSNGSYFYTLDWHEAQDGRFLLQLPNVQPPSSGIYSATYLEASPLGSAFFRLIVRGCGAGRWGPGCTKECPGCLHGGVCHDHDGECVCPPGFTGTRCEQACREGRFGQSCQEQCPGISGCRGLTFCLPDPYGCSCGSGWRGSQCQEACAPGHFGADCRLQCQCQNGGTCDRFSGCVCPSGWHGVHCEKSDRIPQILNMASELEFNLETMPRINCAAAGNPFPVRGSIELRKPDGTVLLSTKAIVEPEKTTAEFEVPRLVLADSGFWECRVSTSGGQDSRRFKVNVKVPPVPLAAPRLLTKQSRQLVVSPLVSFSGDGPISTVRLHYRPQDSTMDWSTIVVDPSENVTLMNLRPKTGYSVRVQLSRPGEGGEGAWGPPTLMTTDCPEPLLQPWLEGWHVEGTDRLRVSWSLPLVPGPLVGDGFLLRLWDGTRGQERRENVSSPQARTALLTGLTPGTHYQLDVQLYHCTLLGPASPPAHVLLPPSGPPAPRHLHAQALSDSEIQLTWKHPEALPGPISKYVVEVQVAGGAGDPLWIDVDRPEETSTIIRGLNASTRYLFRMRASIQGLGDWSNTVEESTLGNGLQAEGPVQESRAAEEGLDQ
notes: human Tie1, full extracellular domain; amine-coupled to a GLC sensor chip; also called immobilized Tie1
